± gives the uncertainty stated by the source.
Test: amyloid nucleation score (Sup35N fusion, yeast selection) (log enrichment); library NNK2; higher = more nucleation; inactive = no reads after selection
Summary of the method: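 For the nucleation score, DiMSum gave the log enrichment of output over input reads, centred on the mode score of non-aggregating sequences. Psi-negative yeast expressing Sup35N fused to peptides of 20 random codons were induced with 100 μM copper sulfate for 24 hours and grown 7 days at 30°C on medium lacking adenine and uracil. Input and output plasmid inserts were Illumina-sequenced, and sequences with under 100 input reads were excluded.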

For FFCRG, which amyloid nucleation score is on record?
Its amyloid nucleation score is 3.26 ± 0.084.

Which amyloid nucleation score does the source give for TPAWCYPTGIGLIPPEWLGQ here?
The amyloid nucleation score was 0.605 ± 0.23.

For YGPGFILSQMMNWLWYSCSS, which amyloid nucleation score is on record?
The amyloid nucleation score was -0.765 ± 0.78.

For ATHKVWFESGYAHTPLVYLF, which amyloid nucleation score is on record?
The amyloid nucleation score was -0.588 ± 0.78.

With LYWYKY as the substance, how does the amyloid nucleation score read?
The amyloid nucleation score was -0.414 ± 0.79.

For CVNYYVYANHRRISYWW, which amyloid nucleation score is on record?
The amyloid nucleation score was -0.337 ± 1.1.

Which amyloid nucleation score does the source give for LSMSWC here?
The amyloid nucleation score was 1.1 ± 0.44.

With NREIMMD as the substance, how does the amyloid nucleation score read?
The amyloid nucleation score was -0.184 ± 1.1.

Which amyloid nucleation score does the source give for RLNHGVSRSYDPPRRWAGSR here?
Its amyloid nucleation score is 0.07 ± 0.61.

For DMDRCLGY, which amyloid nucleation score is on record?
The amyloid nucleation score was 0.812 ± 0.2.

Which amyloid nucleation score does the source give for YAVENTLYHVRVVTLQSISW here?
The amyloid nucleation score was 0.153 ± 0.79.

With WHDRDTITGSITIKKMH as the substance, how does the amyloid nucleation score read?
Its amyloid nucleation score is -0.702 ± 0.32.

With YPNRFINTCFVRCNISLNNY as the substance, how does the amyloid nucleation score read?
Its amyloid nucleation score is 8.485 ± 0.061.

Which amyloid nucleation score does the source give for QTRTRNLLIAQVECRGRSSW here?
Its amyloid nucleation score is “inactive”.

Which amyloid nucleation score does the source give for TTRRC here?
Its amyloid nucleation score is -0.43 ± 0.32.

With HKQRSSASKSV as the substance, how does the amyloid nucleation score read?
The amyloid nucleation score was -0.321 ± 0.39.

Which amyloid nucleation score does the source give for WHSVKMVNMFVGSKVISRSF here?
Its amyloid nucleation score is 5.42 ± 0.07.

Which amyloid nucleation score does the source give for LYRLGFEAHRVYKQLKIIGG here?
Its amyloid nucleation score is 0.764 ± 0.4.

Which amyloid nucleation score does the source give for RFYIALMDFRSMIFGS here?
Its amyloid nucleation score is 5.195 ± 0.046.

With FSVRVTSRFIRYEGSFHFSK as the substance, how does the amyloid nucleation score read?
Its amyloid nucleation score is 0.032 ± 0.76.

Which amyloid nucleation score does the source give for MYCLFFFMWGCYYYTIFRSV here?
Its amyloid nucleation score is “inactive”.

For RTWCPLG, which amyloid nucleation score is on record?
The amyloid nucleation score was 0.486 ± 0.41.

For YHVRIGSGRAVSLHV, which amyloid nucleation score is on record?
The amyloid nucleation score was 0.382 ± 0.5.

Which amyloid nucleation score does the source give for MGLYLWGFRTTSICGVLMDY here?
Its amyloid nucleation score is -1.66 ± 0.76.

For GWCSYTP, which amyloid nucleation score is on record?
The amyloid nucleation score was 0.832 ± 0.67.

For CNNQEMPTSGWMSCFSCALC, which amyloid nucleation score is on record?
The amyloid nucleation score was 1.48 ± 0.32.

With LKCRVITQSCIPSSINRLDG as the substance, how does the amyloid nucleation score read?
Its amyloid nucleation score is -0.02 ± 0.22.

With VADMVVRT as the substance, how does the amyloid nucleation score read?
The amyloid nucleation score was 0.806 ± 0.32.

With WSVGVESSKDQSLDQFGSD as the substance, how does the amyloid nucleation score read?
The amyloid nucleation score was -0.184 ± 1.1.

Which amyloid nucleation score does the source give for SSGCS here?
Its amyloid nucleation score is -0.021 ± 0.5.

For GCVNYNGRCEVDGRAD, which amyloid nucleation score is on record?
The amyloid nucleation score was -0.227 ± 0.23.

With QILWYWGREVFSRRDRFCSV as the substance, how does the amyloid nucleation score read?
Its amyloid nucleation score is 1 ± 0.68.

For CMRCILASCK, which amyloid nucleation score is on record?
The amyloid nucleation score was -0.348 ± 0.34.

Which amyloid nucleation score does the source give for MKVGLLD here?
Its amyloid nucleation score is -0.49 ± 0.76.

With GSNETPHLDALSPSALRMGH as the substance, how does the amyloid nucleation score read?
Its amyloid nucleation score is 0.103 ± 0.63.

For CHQCVNERFESKREPVPDHS, which amyloid nucleation score is on record?
Its amyloid nucleation score is 0.421 ± 0.45.

Which amyloid nucleation score does the source give for LIRGVII here?
Its amyloid nucleation score is 0.21 ± 0.54.

Which amyloid nucleation score does the source give for CKSSGGWNVEMWSVK here?
The amyloid nucleation score was -0.399 ± 0.41.

Which amyloid nucleation score does the source give for FASYRVY here?
Its amyloid nucleation score is 0.305 ± 1.

Which amyloid nucleation score does the source give for RSSLMYARIHCGEVRRNFLC here?
Its amyloid nucleation score is 0.177 ± 0.62.

For MSGEDSGCLWDCNVYSRLDV, which amyloid nucleation score is on record?
The amyloid nucleation score was -0.486 ± 0.74.

Which amyloid nucleation score does the source give for REVDIISHTMGGHRFNRERN here?
The amyloid nucleation score was “inactive”.

With FFYSVRVRPALIIC as the substance, how does the amyloid nucleation score read?
The amyloid nucleation score was “inactive”.

Which amyloid nucleation score does the source give for MVTTSSVSNADLNVDMWLEP here?
Its amyloid nucleation score is 1.01 ± 0.2.

For VKFWYWAVDLDSCVRCGDGA, which amyloid nucleation score is on record?
The amyloid nucleation score was 6.586 ± 0.049.

For ATVIEYKYVRGMYLLMTYTY, which amyloid nucleation score is on record?
The amyloid nucleation score was -0.536 ± 1.

Which amyloid nucleation score does the source give for ETSANDLEPNLSVHHSGFSR here?
Its amyloid nucleation score is 0.078 ± 0.32.

With WVLYGASLCYPWVTSSKLRA as the substance, how does the amyloid nucleation score read?
The amyloid nucleation score was 0.589 ± 0.42.

For VVTGSMDSCGQPKVSSSSAS, which amyloid nucleation score is on record?
The amyloid nucleation score was 0.294 ± 0.38.

With HVVGVNLYRTLGRVFHLWDS as the substance, how does the amyloid nucleation score read?
The amyloid nucleation score was -0.084 ± 0.76.

For LAHGG, which amyloid nucleation score is on record?
Its amyloid nucleation score is 3.16 ± 0.095.

With DGFYCL as the substance, how does the amyloid nucleation score read?
The amyloid nucleation score was 0.019 ± 1.1.

For RLDLYRNMAMVVWQSIDEPP, which amyloid nucleation score is on record?
The amyloid nucleation score was 0.574 ± 0.41.

Which amyloid nucleation score does the source give for FIMSSVCMIRCNITCSHQPS here?
The amyloid nucleation score was 8.21 ± 0.035.

Which amyloid nucleation score does the source give for TFRYFGDWNLQRGML here?
The amyloid nucleation score was 0.85 ± 0.52.

For PEKTFICCLAVRDMQNRGVS, which amyloid nucleation score is on record?
Its amyloid nucleation score is -0.032 ± 1.1.

Which amyloid nucleation score does the source give for QYKIVVELYMLYNISKNVEG here?
Its amyloid nucleation score is 2.14 ± 0.16.

For LLPIGEVKE, which amyloid nucleation score is on record?
The amyloid nucleation score was -1.17 ± 0.44.

For TLHCRSILGELLYVDMVKDD, which amyloid nucleation score is on record?
Its amyloid nucleation score is -0.297 ± 0.46.

For TLNTNMRSLLRI, which amyloid nucleation score is on record?
The amyloid nucleation score was “inactive”.

With VWYINSTNYLCPLISRVQVE as the substance, how does the amyloid nucleation score read?
The amyloid nucleation score was -0.997 ± 0.36.

For LDWHAEHKGSCSFPDNEMLS, which amyloid nucleation score is on record?
The amyloid nucleation score was 0.394 ± 0.56.

Which amyloid nucleation score does the source give for FVKYNCIFNASLTCHK here?
The amyloid nucleation score was 7.686 ± 0.038.

Which amyloid nucleation score does the source give for ENFGVVMRWGYIRLLLQANW here?
Its amyloid nucleation score is “inactive”.

Which amyloid nucleation score does the source give for TYNGMFTQLAFG here?
The amyloid nucleation score was 3.48 ± 0.07.

With FVLTSSMVLFWDGRNDARHG as the substance, how does the amyloid nucleation score read?
Its amyloid nucleation score is 4.31 ± 0.08.

With CVVTSVIENGFFLQFIMFYQ as the substance, how does the amyloid nucleation score read?
Its amyloid nucleation score is “inactive”.

With MYCLVYHQIYSDSHA as the substance, how does the amyloid nucleation score read?
The amyloid nucleation score was 3.91 ± 0.05.

For MGVRY, which amyloid nucleation score is on record?
Its amyloid nucleation score is 1.42 ± 0.38.

With TRCKGHYVWSLQSFRCSIVK as the substance, how does the amyloid nucleation score read?
The amyloid nucleation score was -0.512 ± 0.78.

For SKTMSKMNKDQLQHSMLHDP, which amyloid nucleation score is on record?
Its amyloid nucleation score is -0.453 ± 0.45.

Which amyloid nucleation score does the source give for RMHWTKTH here?
Its amyloid nucleation score is -0.311 ± 1.1.

Which amyloid nucleation score does the source give for YVHVNIRYFYSLGDAVDKMP here?
The amyloid nucleation score was 4.86 ± 0.11.

For HRLLVPDHTMYVSLKRKGLR, which amyloid nucleation score is on record?
The amyloid nucleation score was 0.092 ± 1.1.

With FLDWVLSD as the substance, how does the amyloid nucleation score read?
The amyloid nucleation score was “inactive”.

Which amyloid nucleation score does the source give for AQAFLNGVGRLLVCTRTCRN here?
Its amyloid nucleation score is 0.895 ± 0.81.

For ESDMCFVWSIELVGLMFKLI, which amyloid nucleation score is on record?
Its amyloid nucleation score is -0.979 ± 0.24.

For DDVKDNVYGSVEALKPRSG, which amyloid nucleation score is on record?
The amyloid nucleation score was 0.467 ± 0.17.

For RGLRA, which amyloid nucleation score is on record?
Its amyloid nucleation score is -0.213 ± 0.41.

For LVPSY, which amyloid nucleation score is on record?
Its amyloid nucleation score is 0.457 ± 0.18.

For YYYVTCSILPLFYFEKGLAL, which amyloid nucleation score is on record?
Its amyloid nucleation score is 5.711 ± 0.037.

Which amyloid nucleation score does the source give for RRLYF here?
The amyloid nucleation score was -0.561 ± 0.52.

Which amyloid nucleation score does the source give for SGTYR here?
Its amyloid nucleation score is “inactive”.

For AEWISLQQFLSLQKEFWIKA, which amyloid nucleation score is on record?
Its amyloid nucleation score is -0.596 ± 0.76.

Which amyloid nucleation score does the source give for NWSNLEWWL here?
Its amyloid nucleation score is 0.054 ± 0.77.

With GMWFPLWFVDSSNSMSLLCV as the substance, how does the amyloid nucleation score read?
Its amyloid nucleation score is -1.59 ± 0.76.

For LAYLYTCLLLWSGSCNMTQV, which amyloid nucleation score is on record?
Its amyloid nucleation score is “inactive”.

With FIMVQRLSCLVVQISRAGAC as the substance, how does the amyloid nucleation score read?
The amyloid nucleation score was 3.79 ± 0.12.
